According to US20240382588A1 (published 2024):

Legend:
Assay in all cases: multimer staining
[1] = molecular target: T1, Ro60 peptide on HLA-DRA*01:01 / HLA-DRB1*03:01 (human)
T1 peptide: KRFLLAVDVSASMNQ

[2] = molecular target: T2, MPO (myeloperoxidase) peptide on HLA-DRA*01:01 / HLA-DRB1*04:05 (human)
T2 peptide: MVQIITYRDYLPLVL

[3] = molecular target: T3, SmD1 (Smith protein) peptide on HLA-DRA*01:01 / HLA-DRB1*03:01 (human)
T3 peptide: TLLVDVEPKVKSKKR

Measured: binding result

B1: Promiscuous self-TCR (TCR, V domains shown)
Valpha: RKEVEQDPGPFNVPEGATVAFNCTYSNSASQSFFWYRQDCRKEPKLLMSVYSSGNEDGRFTAQLNRASQYISLLIRDSKLSDSATYLCVVPPGGGFKTIFGAGTRLFVKA
Vbeta: EAQVTQNPRYLITVTGKKLTVTCSQNMNHEYMSWYRQDPGLGLRQIYYSMNVEVTDKGDVPEGYKVSRKEKRNFPLILESPSPNQTSLYFCASRTRTASYGYTFGSGTRLTVV
recognises: all assays above
